Experimental data from a protein production outcome set (Wang et al. 2014).

Assay: label from the status in PepcDB records

| Sequence | protein production |
| --- | --- |
| MTLPRLILPLLIAAACALGGCAYNPDLGRDQLLIVNDNNLARDGEKAWADALRTSHVSKEPRKNARVQAVGQRVIVAAGLAGRPWEYAVFLEEAPNAFVLPGGYVGVTVGLLSLVENDDQLAAVIGHEAGHVVARHAAERVSQETTSKVLLGIAKAAAGGTEFGKLLKDHGEDATRYGLLLPFSRKQELEADKLGVDFMQRAGYRPREAVKLWRNMQALDGGKSGGDLGSTHPSDAVRIQELERYLASKGWLEHHHHHH | failed |
| MTLPRRSGIRALPARGPTMESILGSFLLVAASEMGDKTQLLAFSLATRFRKPWPIMAGILVATLANHGLASSLGAWISANVPARMLAGVLALTFLMFGLWTLRPDSLEASKGPERFGAFLTTTVLFFLAEMGDKTQLATVALAARYGDVIRVTAGTTLGMLAADGLAVFLGEKLAARVSSARIRWAAAGLFFLFGLISAWAAIFG | failed |
| MTLPSTPMPPAGSRKILLDDFQHVGSESHLGQCVNRSWTRHNCGHLENASIICTSEGMALSPHLDGNRQPSNLDNLREKAFLYQRHQHLLKFHHQLPAAGACMEVRLLNGTGRCLGRVEVLIQGTWGTVCDHFWNLAEAAVVCRQLQCGQAMAAHFGASSGKVLLDDMQCVGSKSHLGRCVHRGWARHNCGHLEDASVICAGEGLVVNLHLEGCF | failed |
| MTLQETLNSEYQISFEEAQATAKIVDDLAEAEQKLKNLERQIKALGPINLDAIAQFDEVNERFTFLSSQKDDLLEAKNLLLSTIDDMNDEVKIRFKTSFDAIRESFKTTFAQMFVSGLADLELTSDNLLEAGVEIKVQPPGKKLSSLNLMSGGEKALTALALIFAILRVRTVPFVVLDEVEAALDEANVKRFGDYMNHFDNSNQFIVVTHRRGTMAAAGSMYGVTMADAGVSKMISVKLDSAIN | failed |
| MTLSGGGSASDMSGQTVLTAEDVDIDVVGEGDDGLEEKDSDAGCDSPAGPPELRLDEADEVPPAAPHHGQPQPPHQQPLTLPKEAAGAGAGPGGDVGAPEADGCKGGVGGEEGGASGGGPGAGSGSAGGLAPSKPKNSLVKPPYSYIALITMAILQSPQKKLTLSGICEFISNRFPYYREKFPAWQNSIRHNLSLNDCFVKIPREPGNPGKGNYWTLDPQSEDMFDNGSFLRRRKRFKRHQQEHLREQTALMMQSFGAYSLAAAAGAAGPYGRPYGLHPAAAAGAYSHPAAAAAAAAAAALQYPYALPPVAPVLPPAVPLLPSGELGRKAAAFGSQLGPGLQLQLNSLGAAAAAAGTAGAAGTTASLIKSEPSARPSFSIENIIGGGPAAPGGSAVGAGVAGGTGGSGGGSTAQSFLRPPGTVQSAALMATHQPLSLSRTTATIAPILSVPLSGQFLQPAASAAAAAAAAAQAKWPAQ | failed |
| MTLTALFAAFCGLYLLIGGAWLVVLGGSWYYPIAGLVMLGVTVMLFRGKRAALWLYAALLLATMIWGVWEVGFDFWALTPRSDILVFFGIWLILPFVWRRLPVPSAGAVGALVVALLISGGMLTWAGFNDPQEVNGTLSADATPAAPISTVADGDWPAYGRNQEGQRFSPLKQINADNVKNLKEAWVFRTGDLKQPNDPGEITNEVTPIKVGDTLFLCTAHQRLFALDAATGKEKWHFDPQLNADPSFQHVTCRGVSYHEAKADNAPADVVADCPRRIILPVNDGRLFAVNADNGKLCETFANKGILNLQTNMPVTTPGMYEPTSPPIITDKTIVIAGAVTDNFSTREPSGVIRGFDVNTGKLLWAFDPGAKDPNAIPSDEHHFTLNSPNSWAPAAYDAKLDLVYLPMGVTTPDIWGGNRTPEQERYASSIVALNATTGKLAWSYQTVHHDLWDMDMPSQPTLADIEVNGKTVPVIYAPAKTGNIFVLDRRNGELVVPAPEKPVPQGAAKGDYVTKTQPFSDLSFRPKKDLTGADMWGATMFDQLVCRVIFHQLRYEGIFTPPSEQGTLVFPGNLGMFEWGGISVDPNRQVAIANPMALPFVSKLIPRGPGNPMEPPKDAKGSGTESGVQPQYGVPYGVTLNPFLSPFGLPCKQPAWGYISALDLKTNEVVWKKRIGTPQDSLPFPMPVKLPFTMGMPMLGGPISTAGNVLFIGATADNYLRAYNMSNGEKLWEARLPAGGQATPMTYEVNGKQYVVISAGGHGSFGTKMGDYIVAYALPDDAK | failed |
| MTLTPQELQTYLAALVRQNLQIATMIWGPPGVGKSSVVAQVARQHDLDFVDVRLSQLAPTDLRGLPVPEADAQGSGVSRWYPPEFLPRAGAGILFLDEVNMAPPTMQGMAQQLILDRRVGSYELPDGWFVWAAGNRKEDRASVFDMPAPLANRFLHLTVRPDFDSWRSYALAKGLHEHVIAFLTFRPELLWRLDPQQPAWPSPRSWEMAAQLHRAGLDASSAIGEAAGAEFAAFVRLFEQLPDLGTVLSGAGAGLKLPDEPSVRYAAVVGLAARAADAEEAYRAFTWLADSAGPEWLQLYVATLVSKFQALGQLGELAGLLGRDPRLAELVQGALSLAEGLEHHHHHH | failed |
| MTLTSSQKPFRLLVGDREVQESDLAALLQKHQLLPELVKRMRFAQVIEGIEVQPDVLEQECQAWCKQNGIAPQQLPQLLAQQQISLEQWMSSVENRLRLRLFQEREFSHRAENRFLKRKSQLDLVTYSLLRHSDGHLIQELYQQLLHGEATFEDLATQFSQGHEAKTAGKLGPVPLSQPHPALAEVLRTAQPGQILPPRNLESYWLIIRLDQLQPVAFNETIRRQMLQELFDEWLGAEVQQTLNTL | failed |
| MTMLQIVGALILLIAGFAILRLLFRALTSTASALAGFILLCLFGPALLAGYITERITRLFHIRWLAGVFLTIAGMIISFMWGLDGKHIALEAHTFDSVKFILTTALAAGLLALPVQIRTIQQNGLTPEDISKEINGYYCCFYTAFFLMACSAYAPLIALQFDISPSLMWWGGLLYWLAALVTLLWAASQIQALKRLTSAISQTLEEQPVLNSKSWLSSLQNDYSLPETLTERIWLTLISQRISRGELREFELADGNWLLDNAWYERNMAGFNEKLRESLSFTPDELKTLFRNRLNLSPEANDDFLDRCLDGGDWYPFSEGRRFVSFHHVDELRICASCGLTEVHHAPENHKPDPEWYCSSLCRETETLCQDIYERSHTGFISDATANGLILMKLPETWSTNEKMFASGGQGHGFAAERGNHIVDRVRLKNARILGDNNARNGADRLVSGTEIQTKYCSTAVRSVGAAFDGQNGQYRYMGNHGPMQLEVPRDQYAGAVETMKNKIREGKVPGVTDPAEASRLIRRGHLTYTQARNITRFGTIESVTYDIAEGSVVSLAAGGISFALTTSVFWLSTGDRDAALQTAAVQAGKTFTRTLAVYVTTQQLHRLSVVQGMLKHIDFSTASPTVRQALQKGTGAGNISALNKVMKGTLVTSLALVAVTTGPDMIKMLRGRISGAQFIRNLAVASSGVAGGAVGSVAGGILFSPLGPFGALTGRVVGGVLGGMIASAVSGKIAGALVEEDRVKILAMIQEQVTWLAGSFLLTGHEIENLNANLARVIDQNALEIIFAAGIQQRAATNMLIKPLVVSIIRQRPVMEYDASHLGNMVNRLEETLPPELPA | failed |
| MTMTHLNRLILISLLFVSLLLKSSTASSTVVDEGNRTSRNFRYRTHRFVPRFNHHPYHVTPHRSCDSFIRPYARSMCIELQRIHRSSRKQPLLSPPPPEIDPRYGVDKRLVPSGPNPLHN | failed |
| MTMTRERLYLFDTTLRDGQQTPGIDFSVEDKIAIAKLLDEFGMDYVEGGYPGANPTDTAFFQQKRTASAKFVAFGMTKRAGVSASNDPGLAALVQSKSDAICFVAKSWDYHVRVALGCTNEENLESIKTSVETAVASGKEAMVDCEHFFDGFKANPDYALACAKTAYDAGARWVVLCDTNGGTQPSEVRTIVAKVIASSIPGDHLGIHAHDDTGQAVANSLAAVEAGVRQIQGTLNGIGERCGNANLISIVPTLALKPAFADRFVSGISAEALTGISRLSRAFDELLNRAPEAQAPYVGASAFATKAGIHASALAKEPATYEHVPPESVGNRRRVMVSDQGGKANFLAELKRRGIEVPRDDHRLDALISVVKEREAEGYAYEGADASFELLARKMLHGLPEFFNVTSFRCMVERRFDANGNLKTVSEAIVKVEVDGEEKMSVAEGHGPVNALDIALRKDLGKYQSEIVDLELADFKVRILNGGTEAITRVLIESHDGTGARWWTVGVSENIIDASFQALMDSIIYKLMKNREMAGLVAAE | failed |
| MTNDKPFVDLRQYDQSWFDRGRSAWYILLWWLVQAIAFPLTPHFSSNIRCWILRLFGARIGKGVVVRPTARFTFPWKVTIGDYSWVGDDVVFYSLDEIHIGQHCVISQKSYLCTGSHDIQDPTFRLKVAGITIGNGAWVATDCFIAPGVQIGANAVIGARSSVFTSMPTGQVCWGSPCRPQHPRLKE | failed |
| MTNFKDNDGDGTKLHVVMFPWLAFGHMVPYLELSKLIAQKGHKVSFISTPRNIDRLLPWLPENLSSVINFVKLSLPVGDNKLPEDGEATTDVPFELIPYLKIAYDGLKVPVTEFLESSKPDWVLQDFAGFWLPPISRRLGIKTGFFSAFNGATLGILKPPGFEEYRTSPADFMKPPKWVPFETSVAFKLFECRFIFKGFMAETTEGNVPDIHRVGGVIDGCDVIFVRSCYEYEAEWLGLTQELHRKPVIPVGVLPPKPDEKFEDTDTWLSVKKWLDSRKSKSIVYVAFGSEAKPSQTELNEIALGLELSGLPFFWVLKTRRGPWDTEPVELPEGFEERTADRGMVWRGWVEQLRTLSHDSIGLVLTHPGWGTIIEAIRFAKPMAMLVFVYDQGLNARVIEEKKIGYMIPRDETEGFFTKESVANSLRLVMVEEEGKVYRENVKEMKGVFGDMDRQDRYVDSFLEYLVTNR | failed |
| MTNHEQVLTDYLAAFIEELVQAGVKEAIISPGSRSTPLALMMAEHPTLKIYVDVDERSAGFFALGLAKASKRPVVLLCTSGTAAANYFPAVVEANLSQIPLIVLTADRPHELRNVGAPQAMDQLHLYGSHVKDFTDMALPENSDEMLRYAKWHSSRAVDIAMKTPRGPVHLNFPLREPLVPILEPSPFTATGKKHHHVH | failed |
| MTNIFASWGLIKLEIVRALRNRKFLFFSVIYPSALFLLIAGSADSTTKVEGTGLSLPTFFMVSMASFGALTAVLMGNSERIAKERESGWVRQLRLTTLPGRGYVLAKTASAAVISLPSILIVFVVAAAVKNVRLDAWQWLALTGTIWVGSLVFAALGVAIGYLATGDAVRPITMIVYFGLSMLGGLWMPTTTFPDWLQSIAKWLPTHAYAALGQAIELGNAPQAKDIAILAVSFVLFAGGAAWLYRKDTLKA | failed |
| MTNILILMEREIIKILSVVEFHPLILAFHLGLMLAGVSLLSYSLFLILVKKVDIMLPLVISFMAYLTSLILLILILLLETYRFLIFDGRILVKNSLLTRNEFKFSLRDKNLIIGFYDKASLGKFAIIYGDRLLFKFLTQQKNIRLIKNFVVKSGYRLGGTYKICRVCGSINEENAEYCDFCGSREVSPYDLYWID | failed |
| MTNITASIVLYNNPIDQIRQCIESMQADTRVHVLLVDNSEKKGGYTGLAADNVEILDAPGNVGFGRGHNLVLGRLAALRSEVHLVVNPDIVVSAGCVQAVADVLRQRKDVTLVGPRVVSPDGALYRSCKLLPTPWNLFARRFAPRQLYAAADARYELEAFGYDRELRLHNLSGAFLAFRSEAFTALGGFDPRYFMYLEDVDICRRAAGLGAVIFLPQAEVVHEHGKGSYRSWRLLREHMRSAILYFNRFGWFVDAERRLLNRETLARVNDMRSVVLEHHHHHH | failed |
| MTNLELSGSQSYLNDESTANLSSLAGKFLVQFWGVRGLIPTPSSNTSRYGGNTACVEMQVAGKRLIFDGGTGLRILGKAWQHLQQPLEAHLFFTNSQSNRIQGFPFFAPAFIAGNCFHIYGGAASNGASIKQCLCDQMLQPHFPYPLQVMQSELQFYPLTPDSEVKLDDVTIRTALINQTQRSIGYRVTWQEYSVAYVTDLNMSAEQGEREQVLQIIQDVDLLIANATYTPPTSHDHESVDLLWQAAVEMAQKAGVRKLIISHHHPDDHDDFLDQVEKEVQSTFSDALLACEGLALPVFLEHHHHHH | not failed |
| MTNNLKQRRIILDLAVTLDGFIEGKNGEVDWCIMDPDMGFTDFLNQIDTILYGRKSFDLWGQYIPKNEDPDTEKELWKLVHSKKKYVFSRTQNEIDNQAIFINDNILEEVNKLKKNPGKDIWLYGGASLITTFINLGLVDEFRLSIHPVVLGEGKPLFIDVKQRINLKMVNTRTFSSGVVQIVYHWNG | not failed |
